In patent publication US20180086823A1 (FRAUNHOFER GESELLSCHAFT ZUR FOERDERUNG DER ANGEWANDTEN …, published 2018):
Like-named read-outs stand apart in the source and are kept apart here.

Legend:
[1] = biological target: AMA-1 of Plasmodium falciparum strain K1, on parasites (Plasmodium falciparum (strain K1)); assay: cell-based or functional assay
[2] = biological target: AMA-1 of Plasmodium falciparum strain FCR3, on parasites (Plasmodium falciparum (strain FCR3)); assay: cell-based or functional assay
[3] = biological target: T1, AMA-1 of Plasmodium falciparum strain 3D7, on parasites (schizonts/merozoites) (Plasmodium falciparum (strain 3D7), UniProt P22621 25-622); assay: cell-based or functional assay
T1 chain: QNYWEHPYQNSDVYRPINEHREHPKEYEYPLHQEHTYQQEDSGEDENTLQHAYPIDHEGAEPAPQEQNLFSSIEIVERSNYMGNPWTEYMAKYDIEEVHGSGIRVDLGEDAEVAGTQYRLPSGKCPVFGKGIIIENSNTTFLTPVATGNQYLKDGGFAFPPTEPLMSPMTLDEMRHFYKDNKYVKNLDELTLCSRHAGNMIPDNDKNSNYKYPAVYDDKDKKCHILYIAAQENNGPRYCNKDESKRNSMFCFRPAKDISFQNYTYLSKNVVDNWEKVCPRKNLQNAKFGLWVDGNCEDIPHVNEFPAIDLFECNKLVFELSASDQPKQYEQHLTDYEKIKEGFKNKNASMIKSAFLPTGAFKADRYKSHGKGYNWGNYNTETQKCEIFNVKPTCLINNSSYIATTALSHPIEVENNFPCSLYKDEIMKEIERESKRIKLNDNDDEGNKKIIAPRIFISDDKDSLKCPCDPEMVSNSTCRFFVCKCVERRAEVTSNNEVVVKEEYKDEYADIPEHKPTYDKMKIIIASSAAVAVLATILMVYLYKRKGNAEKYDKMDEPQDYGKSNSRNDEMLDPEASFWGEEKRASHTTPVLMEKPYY

[4] = biological target: AMA-1 of Plasmodium falciparum strain HB3, on parasites (Plasmodium falciparum (strain HB3)); assay: cell-based or functional assay
[5] = biological target: T1, AMA-1 of Plasmodium falciparum strain …; assay: cell-based or functional assay
[6] = biological target: T2, recombinant apical membrane antigen 1 (AMA-1) from Plasmodium falciparum 3D7, produced in Pichia pastoris, … (Plasmodium falciparum (strain 3D7), UniProt P22621 25-546); assay: SPR, Biacore T200, protein-A capture of the antibody, 25° C., 1:1 Langmuir fit
T2 construct: also called native target antigen AMA-1; recombinant AMA-1
T2 chain: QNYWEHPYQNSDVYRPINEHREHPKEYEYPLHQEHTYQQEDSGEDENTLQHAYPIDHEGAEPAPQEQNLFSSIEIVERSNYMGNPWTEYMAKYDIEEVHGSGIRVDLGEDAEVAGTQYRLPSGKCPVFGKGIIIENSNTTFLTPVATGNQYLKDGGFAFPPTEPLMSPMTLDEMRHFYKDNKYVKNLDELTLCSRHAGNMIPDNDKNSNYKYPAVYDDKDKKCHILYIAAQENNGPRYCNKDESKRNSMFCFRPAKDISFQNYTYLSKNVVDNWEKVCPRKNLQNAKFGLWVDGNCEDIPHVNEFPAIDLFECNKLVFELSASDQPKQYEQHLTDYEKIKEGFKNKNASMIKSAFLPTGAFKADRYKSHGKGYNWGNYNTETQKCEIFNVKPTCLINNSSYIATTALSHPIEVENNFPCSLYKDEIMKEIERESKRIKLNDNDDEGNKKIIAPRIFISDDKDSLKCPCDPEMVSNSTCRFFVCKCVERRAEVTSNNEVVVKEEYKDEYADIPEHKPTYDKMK
Procedure: All antibodies were diluted into running buffer to yield equivalent capture levels. The injection time was set to 180 s and dissociation was recorded for 600 s. The protein-A surface was regenerated by a 30 s pulse with 30 mM HCI. For the antibody buffer injections were used for double referencing. Values for the KD of the antibody were calculated according to the curve-fitting methodology for a simple binding model (1:1 Langmuir).

B1: huMAb-anti-AMA-1.1 (antibody, V domains shown)
VH: QVQLQESGPGLVKPSETLSLTCSVSGVSVSSTVFYWGWIRQSPGKGLEWIGSIYYSGSTYYNEALKSRLTLSVETSERQFSLRLSSVTAADTAVYYCARGAINFGGYSGPGTFYFDIWGQGTLITVSS
VL: DIQMTQSPSTLSASVGDRVTITCRASQSITTWLAWYQQKPGTAPKLLIYKASILETGVPSRFSGSGSGTDFTLTISSLQPDDFATYYCQQYSTHLFTFGPGTKVDIK
notes: also called recombinant human anti AMA-1 antibody
IC50 [µg/ml], growth inhibition assay (GIA), strain K1 [1]: 113 µg/mL | IC50 [µg/ml], growth inhibition assay (GIA), strain FCR3 [2]: 230 µg/mL | IC50 [µg/ml], growth inhibition assay (GIA), strain 3D7 [3]: 32 µg/mL | IC50 [µg/ml], growth inhibition assay (GIA), strain HB3 [4]: 115 µg/mL | IC50 [µg/ml], growth inhibition assay (GIA), strain 3D7 [5]: 32 µg/mL | Kd [6]: 0.188 nM | koff [6]: 0.000131 s⁻¹ | kon [6]: 698000 M⁻¹ s⁻¹
